Data reported in patent US20220233706A1 (ANTIKOR BIOPHARMA, published 2022).
Several values for one entry are separate records, joined by “and”; a condition that tells them apart may be missing. Equal entries are not always repeated. Where two headings read alike, the source gives them in different places.

B1: scFv (TCT1067)-DM1-dPEG12 DAR 8 (scFv)
scFv: SGSGGSGQVQLVQSGAEVKKPGESLKISCKGSGYSFTSYWIAWVRQMPGKGLEYMGLIYPGDSDTKYSPSFQGQVTISVDKSVSTAYLQWSSLKPSDSAVYFCARHDVGYCTDRTCAAWPEWLGVWGQGTLVTVSSGGGGSGGGGSGGGGSQSVLTQPPSVSAAPGQKVTISCSGSSSNIGNNYVSWYQQLPGTAPKLLIYGHTNRPAGVPDRFSGSKSGTSASLAISGFRSEDEADYYCASWDYTLSGWVFGGGTKLTVLMASMTGGQQMG
modifications: Maytansine DM1-dPEG12 (from compound 90) on lysine residues, DAR 8 by LC-MS
notes: also called TCT1067-Maytansine-PEG(12) DM1 ADC 2; scFv (TCT1067)-DM1 DAR 8
B2: scFv (TCT1067) (scFv)
scFv: B1 scFv
notes: also called unmodified scFv (TCT1067)
B3: scFv (TCT1067)-Auristatin-F-C5 DAR 5.65 (scFv)
scFv: B1 scFv
modifications: Auristatin F-C5 on lysine residues; DAR 6.31 by AAA, 4.98 by MS, average 5.65
notes: also called TCT1067-AF-C5 ADC2
B4: scFv (TCT)-MMAF-C5 ADC 2 (DAR 6.8) (scFv)
scFv: SGSGGSGQVQLVQSGAEVKKPGESLKISCKGSGYSFTSYWIAWVRQMPGKGLEYMGLIYPGDSDTKYSPSFQGQVTISVDKSVSTAYLQWSSLKPSDSAVYFCARHDVGYCSSSNCAAWPEYFQHWGQGTLVTVSSGGGGSGGGGSGGGGSQSVLTQPPSVSAAPGQKVTISCSGSSSNIGNNYVSWYQQLPGTAPKLLIYGHTNRPAGVPDRFSGSKSGTSASLAISGFRSEDEADYYCAAWDDSLSGWVFGGGTKLTVLMASMTGGQQMG
modifications: MMAF-C5 on lysine residues; DAR 8.0 by AAA, 5.5 by MS, average 6.8
notes: also called scFv (TCT)-MMAF-C5 DAR 6.8; scFv (TCT)-MMAF DAR 8
B5: scFv (TCT) (scFv)
scFv: B4 scFv
notes: Anti-HER2 C6.5 scFv with residual Ser, GSGGSG linker and C-terminal T7 tag; also called cleaved TCT; unmodified scFv (TCT)
B6: scFv (TCT)-Acetate DAR 15 (scFv)
scFv: B4 scFv
modifications: acetyl groups (from Acetate-NHS) on lysines, N-terminal amine and further residues, 15 additions by LC-MS
notes: also called TCT-acetate conjugate 1
B7: scFv (TCT)-MMAF-C5 ADC 1 (DAR 5.6) (scFv)
scFv: B4 scFv
modifications: MMAF-C5 (from MMAF-C5-NHS, compound 78) on lysine residues; DAR 6.64 by AAA, 4.5 by MS, average 5.6
notes: also called scFv (TCT)-MMAF-C5 1 DAR 5.6; scFv (TCT)-MMAF-C5, DAR 6.6
B8: scFv (TCT)-Cemadotin ADC sample 3 (DAR 11) (scFv)
scFv: B4 scFv
modifications: Cemadotin on all but one of the surface lysine residues (11/12), DAR 10.96 by AAA
notes: also called TCT-Cem ADC3; TCT-Cemadotin conjugate 3
B9: scFv (TCT)-Cemadotin ADC sample 1 (DAR 3.9) (scFv)
scFv: B4 scFv
modifications: Cemadotin (from Cemadotin-NHS, compound 2) on lysine residues, average DAR 3.9 by AAA
notes: also called TCT-Cem ADC1; TCT-Cemadotin conjugate 1
B10: scFv TCT-P5C5(1) (DAR 8) (scFv)
scFv: B4 scFv
modifications: P5C5 (from P5C5-NHS, compound 6) on lysine residues, DAR 8.17 by AAA
notes: also called scFv (TCT)-P5C5, DAR = 8; compound 71
B11: scFv (TCT)-Cemadotin ADC sample 2 (DAR 8.2) (scFv)
scFv: B4 scFv
modifications: Cemadotin on lysine residues, average DAR 8.2 by AAA
notes: also called TCT-Cem ADC2; TCT-Cemadotin conjugate 2

Key:
[1] = target: T1, HER2 immobilised on a Biacore chip (UniProt P04626 23-652, limits assumed); test: Biacore SPR, HER2 amine-coupled to the chip
T1 construct: also called immobilised HER2 target antigen (Biacore SPR); HER2 chip

[2] = target: T1, HER2 immobilised on a Biacore chip; test: Biacore SPR, HER2 amine-coupled to the chip; DM1-dPEG12 conjugate, DAR 8
Protocol: (§1) A standard amine-coupling method was used to prepare all Biacore surfaces (CM5 or CM3), as follows. Flow cells were activated individually by injecting a freshly mixed solution of 0.2M EDC in 0.05 M NHS at 30 μl/min. […] Excess NHS ester was deactivated using a 1 M ethanolamine solution. […] The dissociation time was extended to 3600 s for the highest concentration. Surfaces were regenerated with 45 s injection of MgCl₂ […].

[3] = target: T1, HER2 immobilised on a Biacore chip; test: Biacore SPR, HER2 amine-coupled to the chip; unmodified scFv (TCT1067)
Protocol: as §1

[4] = target: T1, HER2 immobilised on a Biacore chip; test: Biacore SPR, HER2 amine-coupled to the chip; Auristatin-F-C5 conjugate, DAR 5.65
Protocol: as §1

HER2-Fc [5] = target: T2, HER2-Fc (UniProt P04626 23-652); test: ELISA, plates coated with 10 µg/ml HER2-Fc, anti-T7 peroxidase detection
T2 construct: Coated at 10 µg/ml on ELISA plates; also called HER2 antigen; immobilised HER2 target antigen (ELISA); not shown: Fc part
Protocol: (§2) All proteins were detected using the C-terminal T7 Tag which was not expected to be chemically modified (no lysines present). 96-well Immunosorb ELISA plates were coated with 10 μg/ml HER2-Fc in PBS, followed by the test samples, anti-T7 peroxidase conjugate. Extensive PBS washes were in between each layer and detection was with BM-Blue substrate.

HER2-Fc [6] = target: T2, HER2-Fc; test: ELISA, plates coated with 10 µg/ml HER2-Fc, anti-T7 peroxidase detection; unmodified scFv (TCT), ELISA
Protocol: (§3) The DAR was determined by AAA as before (Table 11A & B), this time following the release of the di-proline fragment to identify and quantify the P5-based drug. […] All proteins were detected using the C-terminal T7 Tag which was not expected to be chemically modified (no lysines present). 96-well Immunosorb ELISA plates were coated with 10 μg/ml HER2-Fc in PBS, followed by the test samples, anti-T7-peroxidase conjugate. Extensive PBS/tween-20 and PBS washes were in between each layer and detection was with BM-Blue substrate. […] The DARs were verified by AAA (Tables 11A and 11B).

HER2-Fc [7] = target: T2, HER2-Fc; test: ELISA on plates coated with 10 µg/ml HER2-Fc, detection anti-T7 peroxidase conjugate, absorption at 450 nm
Protocol: as §2

HER2-Fc [8] = target: T2, HER2-Fc; test: as above; remark: listed apart in the source
Protocol: as §3

HER2-Fc [9] = target: T2, HER2-Fc; test: ELISA, plates coated with 10 µg/ml HER2-Fc, anti-T7 peroxidase detection; scFv TCT-P5C5(1), 8 drugs loaded, ELISA
Protocol: as §3

Row | Binder | koff [1] | kon [1] | Kd [1] [nM] | Kd (HER2-Fc [5]) [nM] | EC50 (read off the curve) (HER2-Fc [7]) [nM] | also measured
1 | B1 | 3.28e-05 s⁻¹ | 13200 M⁻¹ s⁻¹ |  |  |  | Kd [2]: 2.48 nM
2 | B2 | 3.7e-05 s⁻¹ and 3.69e-05 s⁻¹ | 3.9e+06 M⁻¹ s⁻¹ and 3.88e+06 M⁻¹ s⁻¹ |  |  |  | Kd [3]: 0.0095 nM
3 | B3 | 1.35e-05 s⁻¹ | 336000 M⁻¹ s⁻¹ |  |  |  | Kd [4]: 0.0403 nM
4 | B4 | 0.0042 s⁻¹ | 1.2e+06 M⁻¹ s⁻¹ | 3.6 |  |  | 
5 | B5 | 0.00417 s⁻¹ | 2.8e+06 M⁻¹ s⁻¹ | 1.49 | 2.5 | 2 to 3 | Kd (HER2-Fc [6]): 7 nM; EC50 (read off the curve) (HER2-Fc [8]): ~7 nM; Kd (HER2-Fc [8]): 6.97 nM
6 | B6 | 0.0171 s⁻¹ | 5.93e+06 M⁻¹ s⁻¹ | 2.9 |  |  | 
7 | B7 | 0.0042 s⁻¹ | 770000 M⁻¹ s⁻¹ | 5.4 |  |  | 
8 | B8 |  |  |  | 27.5 | ~40 | 
9 | B9 |  |  |  | 3.3 | ~4 | 
10 | B10 |  |  |  |  |  | Kd (HER2-Fc [9]): 13 nM; EC50 (read off the curve) (HER2-Fc [8]): 10 to 20 nM; Kd (HER2-Fc [8]): 13 nM
11 | B11 |  |  |  | 15.5 | ~20 | 
